The values below come from paper PMC3631189.

Common to all, as to test: SEC; gel permeation chromatography on Superdex-200, purified receptors-Fc loaded in 400 µl, eluted in PBS, absorbance at 280 nm
On the technique in general: Size exclusion chromatography separates by hydrodynamic size, large species first.

In test [1] the target is atacicept.
The target of test [2] is hFn14-Fc (human) (UniProt Q9NP84).
The target of test [3] is hTACI-Fc.

In general, stoichiometry N refers to a count of units in the complex or per binding partner. The substance atacicept (Fc fusion) had a stoichiometry N in test [1] of 2.
As to “hFn14-Fc (from UniProt Q9NP84 28-80) (Fc fusion)”, the stoichiometry N in test [2] stood at 2.
In the case of hTACI-Fc (Fc fusion), the stoichiometry N in test [3] turned out to be 2.
